Patent US20150315292A1 (VANDERBILT UNIVERSITY, published 2015)

Legend:
[1] = biological target: T1, human fXII with the kringle domain replaced with the corresponding domain from HGFA (human, UniProt P00748 20-216; Q04756 286-367; P00748 296-615, limits assumed); test: Western blot after SDS-PAGE
T1 construct: Expressed in human fibroblasts (HEK293) and blotted from conditioned medium; also called fXII/HGFA kringle domain chimera; KNG
T1 sequence (looked up): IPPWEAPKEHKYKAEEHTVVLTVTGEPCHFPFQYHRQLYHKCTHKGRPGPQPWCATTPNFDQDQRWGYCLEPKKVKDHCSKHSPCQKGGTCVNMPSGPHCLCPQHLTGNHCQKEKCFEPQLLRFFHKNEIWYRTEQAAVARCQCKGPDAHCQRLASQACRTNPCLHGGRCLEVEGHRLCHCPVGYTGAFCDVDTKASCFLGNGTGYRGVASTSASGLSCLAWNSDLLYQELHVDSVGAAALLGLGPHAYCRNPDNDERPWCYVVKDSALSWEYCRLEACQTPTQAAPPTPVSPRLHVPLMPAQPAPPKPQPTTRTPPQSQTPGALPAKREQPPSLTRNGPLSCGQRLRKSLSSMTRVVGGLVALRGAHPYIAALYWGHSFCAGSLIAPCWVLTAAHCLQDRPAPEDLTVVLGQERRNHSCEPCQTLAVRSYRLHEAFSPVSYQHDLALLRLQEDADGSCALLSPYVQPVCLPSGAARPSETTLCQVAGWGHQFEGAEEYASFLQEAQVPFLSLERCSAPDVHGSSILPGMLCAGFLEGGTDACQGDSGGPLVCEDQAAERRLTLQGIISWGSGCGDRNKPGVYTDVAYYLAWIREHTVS
Source text: (§1) AB043 and AB042 both recognize baboon and human fXII, indicating they can be used for studies in baboon thrombosis models. […] Chimeras in which individual fXII domains were replaced with those of HGFA were expressed in human fibroblasts.

[2] = biological target: T2, human fXII with the EGF2 domain replaced with the corresponding domain from HGFA (human, UniProt P00748 20-173; Q04756 241-279; P00748 211-615, limits assumed); test: Western blot after SDS-PAGE
T2 construct: Expressed in human fibroblasts (HEK293) and blotted from conditioned medium; also called fXII/HGFA chimera for the EGF2 domain
T2 sequence (looked up): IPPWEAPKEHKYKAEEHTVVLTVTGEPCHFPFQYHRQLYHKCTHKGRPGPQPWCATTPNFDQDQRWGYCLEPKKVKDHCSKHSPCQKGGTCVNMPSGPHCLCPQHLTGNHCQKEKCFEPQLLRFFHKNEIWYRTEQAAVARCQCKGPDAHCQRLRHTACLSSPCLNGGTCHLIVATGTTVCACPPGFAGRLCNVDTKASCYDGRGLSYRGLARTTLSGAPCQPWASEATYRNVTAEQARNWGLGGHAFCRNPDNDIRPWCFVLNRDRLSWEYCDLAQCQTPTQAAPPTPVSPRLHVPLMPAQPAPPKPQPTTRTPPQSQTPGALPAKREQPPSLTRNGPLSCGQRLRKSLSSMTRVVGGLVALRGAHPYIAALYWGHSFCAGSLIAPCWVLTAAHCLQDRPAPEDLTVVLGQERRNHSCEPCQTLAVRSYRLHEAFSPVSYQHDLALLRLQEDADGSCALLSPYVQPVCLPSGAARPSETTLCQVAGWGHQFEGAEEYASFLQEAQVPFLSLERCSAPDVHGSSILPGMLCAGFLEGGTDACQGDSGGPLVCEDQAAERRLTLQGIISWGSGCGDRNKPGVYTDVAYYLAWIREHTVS
Source text: as §1

binding result [1]: no binding
binding result [2]: no binding
B1: monoclonal anti-human fXII antibody AB042 (antibody, V domains shown)
VH: EVQLQQSGAELVRPGASVKLSCTASGFNIKDDYMHWVKQRPEQGLEWIGWIDPENGDTEYASKFQGKATITSDTSSNTAYLQLSSLTSEDTAVYYCTENYYGSSFFAYWGQGTLVTVSA
VL: DIVMTQATPSVPVTPGESVSISCRSSKSLLHSNGITYLYWFLQRPGQSPQRLIYYMSNLASGVPDRFSGRGSGTDFTLRISRVEAEDVGVYYCMQSLEYPYTFGGGTKLEIKR
notes: Mouse hybridoma IgG raised in fXII knockout mice immunized with human fXII
